Results on one molecule are retold here after PMC8020760, “Assembly of a dsRNA synthesizing complex: RNA-DEPENDENT RNA POLYMERASE 2 contacts the largest subunit of NUCLEAR RNA POLYMERASE IV” (Proceedings of the National Academy of Sciences of the …, 2021).

Assay [1] deals with T1, recombinant NRPD1 fused at its C terminus to a FLAG epitope tag (A. thaliana, UniProt Q9LQ02 1-1453).
T1 construct: NRPD1 open reading frame, A. thaliana, codon optimized synthetic gene; full-length NRPD1 is 1,453 amino acids; More in SI Appendix, Methods; also called FLAG-tagged NRPD1; not shown: FLAG, C-terminal, kept
T1 sequence (looked up): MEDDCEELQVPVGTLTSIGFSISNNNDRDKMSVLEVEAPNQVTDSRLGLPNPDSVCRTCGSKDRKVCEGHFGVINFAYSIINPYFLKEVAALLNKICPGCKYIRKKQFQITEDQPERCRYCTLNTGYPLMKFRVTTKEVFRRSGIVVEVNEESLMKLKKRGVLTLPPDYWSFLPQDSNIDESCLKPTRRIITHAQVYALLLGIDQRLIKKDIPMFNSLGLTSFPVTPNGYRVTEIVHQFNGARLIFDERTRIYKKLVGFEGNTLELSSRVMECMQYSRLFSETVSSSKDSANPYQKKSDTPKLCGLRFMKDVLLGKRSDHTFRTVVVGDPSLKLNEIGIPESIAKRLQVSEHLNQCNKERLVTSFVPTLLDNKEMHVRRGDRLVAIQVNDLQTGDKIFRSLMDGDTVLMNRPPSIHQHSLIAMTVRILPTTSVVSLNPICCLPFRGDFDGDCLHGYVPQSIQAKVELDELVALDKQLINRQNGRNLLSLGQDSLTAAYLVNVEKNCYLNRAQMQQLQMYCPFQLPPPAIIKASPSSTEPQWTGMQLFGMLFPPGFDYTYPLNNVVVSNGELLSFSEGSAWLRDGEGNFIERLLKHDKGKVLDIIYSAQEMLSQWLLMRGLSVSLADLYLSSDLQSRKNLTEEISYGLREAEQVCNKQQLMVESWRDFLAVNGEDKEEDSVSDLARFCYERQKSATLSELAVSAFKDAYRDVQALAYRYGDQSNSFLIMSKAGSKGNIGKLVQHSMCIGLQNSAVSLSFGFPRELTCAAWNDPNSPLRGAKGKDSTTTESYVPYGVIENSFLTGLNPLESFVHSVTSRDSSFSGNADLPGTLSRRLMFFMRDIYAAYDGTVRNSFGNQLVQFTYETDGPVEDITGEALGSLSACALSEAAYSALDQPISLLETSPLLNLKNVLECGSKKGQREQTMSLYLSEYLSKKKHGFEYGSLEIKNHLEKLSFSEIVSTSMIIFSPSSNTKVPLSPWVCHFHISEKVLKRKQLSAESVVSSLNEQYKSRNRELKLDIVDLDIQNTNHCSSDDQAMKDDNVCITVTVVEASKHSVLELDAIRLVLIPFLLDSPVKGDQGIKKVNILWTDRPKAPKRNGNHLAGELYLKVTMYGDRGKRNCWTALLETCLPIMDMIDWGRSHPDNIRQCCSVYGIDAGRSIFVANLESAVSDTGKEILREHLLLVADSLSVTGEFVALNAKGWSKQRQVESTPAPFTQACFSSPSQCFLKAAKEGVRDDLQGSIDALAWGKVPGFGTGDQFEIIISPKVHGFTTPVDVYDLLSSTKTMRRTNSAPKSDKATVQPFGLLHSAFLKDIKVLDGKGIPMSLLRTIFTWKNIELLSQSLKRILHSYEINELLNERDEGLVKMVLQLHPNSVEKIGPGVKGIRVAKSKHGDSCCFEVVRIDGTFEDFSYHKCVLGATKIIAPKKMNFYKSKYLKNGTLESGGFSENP
Description: co-IP; purified recombinant proteins, 0.25 µM each, 30 min, room temperature, 50 mM Hepes-KOH pH 7.5, 150 mM NaCl; IP with resin against the tag of one or the other partner (anti-FLAG, anti-V5 or anti-HA); immunoblot. The following applies: both partners purified. Background: In western blotting, separated proteins are transferred to a membrane and probed.

Assay [2] has as its target T2, NRPD1-FLAG of plant Pol IV, as the band of about 165 kDa resolved by SDS-PAGE (A. thaliana, UniProt Q9LQ02 1-1453).
T2 construct: NRPD1, largest catalytic subunit of Pol IV, A. thaliana; full-length NRPD1 is 1,453 amino acids; The band is assigned to NRPD1 by its size only; also called largest Pol IV subunit
T2 sequence (looked up): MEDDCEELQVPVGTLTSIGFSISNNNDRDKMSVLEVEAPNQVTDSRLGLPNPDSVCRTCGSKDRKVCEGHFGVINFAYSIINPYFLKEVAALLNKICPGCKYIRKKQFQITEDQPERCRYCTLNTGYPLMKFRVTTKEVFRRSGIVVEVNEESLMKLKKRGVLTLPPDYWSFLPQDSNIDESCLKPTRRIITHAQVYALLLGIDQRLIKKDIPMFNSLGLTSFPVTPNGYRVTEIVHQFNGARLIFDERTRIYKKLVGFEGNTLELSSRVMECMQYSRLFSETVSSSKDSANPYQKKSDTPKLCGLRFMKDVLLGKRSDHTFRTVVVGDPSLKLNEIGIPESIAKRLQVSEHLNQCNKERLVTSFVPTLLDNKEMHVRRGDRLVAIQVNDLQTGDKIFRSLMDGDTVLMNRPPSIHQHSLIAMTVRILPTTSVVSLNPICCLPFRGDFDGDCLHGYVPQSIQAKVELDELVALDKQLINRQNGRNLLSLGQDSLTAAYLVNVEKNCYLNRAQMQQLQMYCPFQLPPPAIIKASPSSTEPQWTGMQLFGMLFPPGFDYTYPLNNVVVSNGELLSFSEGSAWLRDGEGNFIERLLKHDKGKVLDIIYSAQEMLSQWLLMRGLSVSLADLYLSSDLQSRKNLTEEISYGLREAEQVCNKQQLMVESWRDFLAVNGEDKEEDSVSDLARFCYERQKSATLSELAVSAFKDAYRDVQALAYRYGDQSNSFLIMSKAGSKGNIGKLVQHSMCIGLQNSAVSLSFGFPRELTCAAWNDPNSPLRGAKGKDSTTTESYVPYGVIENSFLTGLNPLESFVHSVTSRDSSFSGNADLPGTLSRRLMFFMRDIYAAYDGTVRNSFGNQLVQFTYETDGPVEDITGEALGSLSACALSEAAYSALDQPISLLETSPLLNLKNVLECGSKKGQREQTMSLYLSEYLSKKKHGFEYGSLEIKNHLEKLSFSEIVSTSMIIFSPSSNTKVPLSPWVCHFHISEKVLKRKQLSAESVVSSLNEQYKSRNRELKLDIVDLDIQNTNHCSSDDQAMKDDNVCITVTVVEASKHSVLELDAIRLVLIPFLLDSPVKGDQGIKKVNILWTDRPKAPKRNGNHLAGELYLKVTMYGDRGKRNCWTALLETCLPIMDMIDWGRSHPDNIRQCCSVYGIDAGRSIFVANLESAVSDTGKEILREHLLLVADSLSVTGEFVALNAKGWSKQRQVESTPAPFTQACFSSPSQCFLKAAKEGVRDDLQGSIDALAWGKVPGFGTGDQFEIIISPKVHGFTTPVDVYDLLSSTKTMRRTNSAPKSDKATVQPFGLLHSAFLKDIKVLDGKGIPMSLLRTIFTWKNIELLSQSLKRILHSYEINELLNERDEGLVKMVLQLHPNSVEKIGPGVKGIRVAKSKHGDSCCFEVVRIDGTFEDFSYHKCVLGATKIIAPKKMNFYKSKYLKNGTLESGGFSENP
Kind of assay: far-Western, overlay or dot blot; far-Western: affinity-purified FLAG-tagged Pol II, Pol IV and Pol V resolved by SDS-PAGE, electroblotted to nitrocellulose, incubated with recombinant V5-tagged RDR2, detected with anti-V5-HRP. Particulars: both partners purified.

B1: recombinant RNA-DEPENDENT RNA POLYMERASE 2 (RDR2), wild type, with N-terminal V5 epitope and 6xHis tags (enzyme, A. thaliana, UniProt O82504 1-1133, looked up)
chain: MVSETTTNRSTVKISNVPQTIVADELLRFLELHLGEDTVFALEIPTTRDNWKPRDFARVQFTTLEVKSRAQLLSSQSKLLFKTHNLRLSEAYDDIIPRPVDPRKRLDDIVLTVGFPESDEKRFCALEKWDGVRCWILTEKRRVEFWVWESGDCYKIEVRFEDIIETLSCCVNGDASEIDAFLLKLKYGPKVFKRVTVHIATKFKSDRYRFCKEDFDFMWIRTTDFSGSKSIGTSTCFCLEVHNGSTMLDIFSGLPYYREDTLSLTYVDGKTFASAAQIVPLLNAAILGLEFPYEILFQLNALVHAQKISLFAASDMELIKILRGMSLETALVILKKLHQQSSICYDPVFFVKTQMQSVVKKMKHSPASAYKRLTEQNIMSCQRAYVTPSKIYLLGPELETANYVVKNFAEHVSDFMRVTFVEEDWSKLPANALSVNSKEGYFVKPSRTNIYNRVLSILGEGITVGPKRFEFLAFSASQLRGNSVWMFASNEKVKAEDIREWMGCFRKIRSISKCAARMGQLFSASRQTLIVRAQDVEQIPDIEVTTDGADYCFSDGIGKISLAFAKQVAQKCGLSHVPSAFQIRYGGYKGVIAVDRSSFRKLSLRDSMLKFDSNNRMLNVTRWTESMPCFLNREIICLLSTLGIEDAMFEAMQAVHLSMLGNMLEDRDAALNVLQKLSGENSKNLLVKMLLQGYAPSSEPYLSMMLRVHHESQLSELKSRCRILVPKGRILIGCMDEMGILEYGQVYVRVTLTKAELKSRDQSYFRKIDEETSVVIGKVVVTKNPCLHPGDIRVLDAIYEVHFEEKGYLDCIIFPQKGERPHPNECSGGDLDGDQFFVSWDEKIIPSEMDPPMDYAGSRPRLMDHDVTLEEIHKFFVDYMISDTLGVISTAHLVHADRDPEKARSQKCLELANLHSRAVDFAKTGAPAEMPYALKPREFPDFLERFEKPTYISESVFGKLYRAVKSSLAQRKPEAESEDTVAYDVTLEEAGFESFIETAKAHRDMYGEKLTSLMIYYGAANEEEILTGILKTKEMYLARDNRRYGDMKDRITLSVKDLHKEAMGWFEKSCEDEQQKKKLASAWYYVTYNPNHRDEKLTFLSFPWIVGDVLLDIKAENAQRQSVEEKTSGLVSI
B1: the binding result in assay [1] and in assay [2] was “binds” throughout.
